Measurements taken from article PMC9396398, “Crystal structure of Ankyrin-G in complex with a fragment of Neurofascin reveals binding mechanisms required for integrity of the axon initial segment” (The Journal of Biological Chemistry, 2022).

Legend:
[1] = biological target: T1, AnkG R6-24 (Rattus norvegicus); experiment: ITC
T1 chain: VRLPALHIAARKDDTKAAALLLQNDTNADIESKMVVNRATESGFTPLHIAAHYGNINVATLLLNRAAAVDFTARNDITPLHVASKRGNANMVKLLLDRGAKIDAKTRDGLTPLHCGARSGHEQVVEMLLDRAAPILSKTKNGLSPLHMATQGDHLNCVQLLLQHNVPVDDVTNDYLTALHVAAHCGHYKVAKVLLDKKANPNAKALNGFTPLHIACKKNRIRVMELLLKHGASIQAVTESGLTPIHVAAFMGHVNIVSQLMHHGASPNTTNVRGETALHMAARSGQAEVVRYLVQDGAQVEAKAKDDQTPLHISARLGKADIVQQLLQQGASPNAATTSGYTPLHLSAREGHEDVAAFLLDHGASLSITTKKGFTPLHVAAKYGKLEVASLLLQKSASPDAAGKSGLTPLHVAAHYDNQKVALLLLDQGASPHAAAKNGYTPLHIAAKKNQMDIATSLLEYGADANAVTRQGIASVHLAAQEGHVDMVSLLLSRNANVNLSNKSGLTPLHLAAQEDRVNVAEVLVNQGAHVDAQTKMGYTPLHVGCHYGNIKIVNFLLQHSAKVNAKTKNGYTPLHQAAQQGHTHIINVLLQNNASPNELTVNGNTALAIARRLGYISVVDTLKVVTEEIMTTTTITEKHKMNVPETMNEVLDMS

[2] = biological target: T2, AnkG R8-24 (Rattus norvegicus); experiment: ITC
T2 chain: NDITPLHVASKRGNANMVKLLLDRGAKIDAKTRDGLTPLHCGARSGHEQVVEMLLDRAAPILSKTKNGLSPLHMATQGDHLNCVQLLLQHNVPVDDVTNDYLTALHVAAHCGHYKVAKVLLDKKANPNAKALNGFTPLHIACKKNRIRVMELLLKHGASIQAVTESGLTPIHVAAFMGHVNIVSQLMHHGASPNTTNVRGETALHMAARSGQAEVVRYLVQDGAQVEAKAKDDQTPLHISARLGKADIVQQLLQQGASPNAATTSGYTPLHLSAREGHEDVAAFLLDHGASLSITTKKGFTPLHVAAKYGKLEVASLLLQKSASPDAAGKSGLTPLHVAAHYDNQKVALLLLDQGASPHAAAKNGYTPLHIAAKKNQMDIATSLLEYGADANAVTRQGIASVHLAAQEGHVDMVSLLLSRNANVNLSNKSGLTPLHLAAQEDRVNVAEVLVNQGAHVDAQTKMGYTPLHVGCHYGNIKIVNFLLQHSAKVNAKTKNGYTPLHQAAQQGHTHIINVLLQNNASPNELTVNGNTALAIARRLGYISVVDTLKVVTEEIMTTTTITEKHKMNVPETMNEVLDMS

[3] = biological target: AnkG R6-16 (UniProt O70511); experiment: ITC; VP-ITC at 25 °C; 50 mM Tris, 100 mM NaCl, 1 mM EDTA, 1 mM DTT, pH 7.8; Nfasc proteins (200 μM) in the syringe, AnkG proteins (20 μM) in the cell; one-site binding model
AnkG R6-16, sequence (O70511 whole entry, the tested form may be a part): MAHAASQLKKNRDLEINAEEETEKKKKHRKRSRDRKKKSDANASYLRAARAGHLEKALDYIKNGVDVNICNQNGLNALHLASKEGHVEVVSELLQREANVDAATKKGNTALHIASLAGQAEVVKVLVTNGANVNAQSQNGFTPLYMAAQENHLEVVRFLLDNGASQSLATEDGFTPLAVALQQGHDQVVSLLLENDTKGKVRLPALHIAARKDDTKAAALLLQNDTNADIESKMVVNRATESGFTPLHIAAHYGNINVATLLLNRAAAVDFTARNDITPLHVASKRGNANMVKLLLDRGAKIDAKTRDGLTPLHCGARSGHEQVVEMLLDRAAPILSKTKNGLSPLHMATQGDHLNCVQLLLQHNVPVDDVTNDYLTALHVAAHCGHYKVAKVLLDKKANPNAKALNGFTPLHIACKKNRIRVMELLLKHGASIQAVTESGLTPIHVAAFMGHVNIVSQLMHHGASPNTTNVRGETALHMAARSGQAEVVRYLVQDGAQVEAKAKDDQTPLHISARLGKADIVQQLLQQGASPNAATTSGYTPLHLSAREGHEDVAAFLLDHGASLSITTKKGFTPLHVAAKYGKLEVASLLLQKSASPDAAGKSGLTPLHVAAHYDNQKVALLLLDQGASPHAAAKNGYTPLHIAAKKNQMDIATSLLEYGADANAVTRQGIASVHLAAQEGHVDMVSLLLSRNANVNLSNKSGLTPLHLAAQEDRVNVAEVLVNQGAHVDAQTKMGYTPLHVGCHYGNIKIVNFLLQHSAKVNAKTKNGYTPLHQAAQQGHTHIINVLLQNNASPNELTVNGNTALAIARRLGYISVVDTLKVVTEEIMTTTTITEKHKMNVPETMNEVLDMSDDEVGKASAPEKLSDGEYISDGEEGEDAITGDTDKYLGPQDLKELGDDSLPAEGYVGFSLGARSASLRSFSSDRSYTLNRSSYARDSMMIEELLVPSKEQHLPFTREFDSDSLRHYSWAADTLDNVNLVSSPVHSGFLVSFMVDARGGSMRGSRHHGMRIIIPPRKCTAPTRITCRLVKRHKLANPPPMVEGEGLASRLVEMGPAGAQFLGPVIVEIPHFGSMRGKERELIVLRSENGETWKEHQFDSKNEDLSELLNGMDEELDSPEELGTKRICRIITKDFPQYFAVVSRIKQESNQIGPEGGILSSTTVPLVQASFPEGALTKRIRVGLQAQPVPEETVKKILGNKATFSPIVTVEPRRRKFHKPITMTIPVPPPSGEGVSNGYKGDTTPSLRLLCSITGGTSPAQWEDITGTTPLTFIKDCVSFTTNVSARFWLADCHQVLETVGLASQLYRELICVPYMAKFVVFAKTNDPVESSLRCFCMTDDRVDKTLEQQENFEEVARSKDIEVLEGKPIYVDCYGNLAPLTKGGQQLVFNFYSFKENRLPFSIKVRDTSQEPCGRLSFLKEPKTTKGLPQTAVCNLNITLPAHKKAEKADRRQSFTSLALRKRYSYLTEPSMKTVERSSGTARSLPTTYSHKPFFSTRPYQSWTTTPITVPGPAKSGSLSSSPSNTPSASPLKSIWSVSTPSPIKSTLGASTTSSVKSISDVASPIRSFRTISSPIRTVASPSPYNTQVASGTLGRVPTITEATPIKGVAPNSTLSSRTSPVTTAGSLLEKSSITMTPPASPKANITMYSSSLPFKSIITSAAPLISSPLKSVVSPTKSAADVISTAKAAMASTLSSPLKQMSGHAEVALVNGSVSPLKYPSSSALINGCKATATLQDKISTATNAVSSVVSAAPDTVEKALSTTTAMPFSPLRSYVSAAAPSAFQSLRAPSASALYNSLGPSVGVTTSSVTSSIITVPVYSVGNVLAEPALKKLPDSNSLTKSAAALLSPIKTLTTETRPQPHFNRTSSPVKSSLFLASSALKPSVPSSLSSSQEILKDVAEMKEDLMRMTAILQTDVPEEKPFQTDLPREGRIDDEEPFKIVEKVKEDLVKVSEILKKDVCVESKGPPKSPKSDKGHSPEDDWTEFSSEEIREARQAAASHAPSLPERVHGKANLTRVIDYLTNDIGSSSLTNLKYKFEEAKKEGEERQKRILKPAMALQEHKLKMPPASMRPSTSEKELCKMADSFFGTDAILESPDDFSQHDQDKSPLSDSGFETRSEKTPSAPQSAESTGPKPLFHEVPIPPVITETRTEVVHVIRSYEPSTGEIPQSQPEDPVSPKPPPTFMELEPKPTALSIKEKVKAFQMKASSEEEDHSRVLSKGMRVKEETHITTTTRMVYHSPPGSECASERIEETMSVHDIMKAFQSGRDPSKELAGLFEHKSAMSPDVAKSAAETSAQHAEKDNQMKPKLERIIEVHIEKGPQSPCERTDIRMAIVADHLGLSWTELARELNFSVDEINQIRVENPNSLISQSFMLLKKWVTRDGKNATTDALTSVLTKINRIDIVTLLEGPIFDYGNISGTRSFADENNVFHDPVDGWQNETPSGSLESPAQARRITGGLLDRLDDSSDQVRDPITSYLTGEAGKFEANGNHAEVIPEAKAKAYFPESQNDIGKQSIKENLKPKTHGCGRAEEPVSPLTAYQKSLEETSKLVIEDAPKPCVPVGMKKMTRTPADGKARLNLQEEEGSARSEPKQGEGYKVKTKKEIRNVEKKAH

[4] = biological target: T3, AnkG ANK repeats (residues 38-855, R1-24) (UniProt O70511 38-855); experiment: as above; details: both partners purified
T3 construct: Ankyrin-G (AnkG), ANK repeats R1-24, residues 38-855; In human Q12955 the same residues seem to stand 8 lower (I277 here = I269 there); Cloned into a modified pET32a vector; the tag is said to be removed only for the crystallisation proteins; also called AnkG R1-24; Ankyrin-G ankyrin repeats; source: E. coli BL21 (DE3), purified (Ni-NTA, size-exclusion chromatography)
T3 sequence (looked up): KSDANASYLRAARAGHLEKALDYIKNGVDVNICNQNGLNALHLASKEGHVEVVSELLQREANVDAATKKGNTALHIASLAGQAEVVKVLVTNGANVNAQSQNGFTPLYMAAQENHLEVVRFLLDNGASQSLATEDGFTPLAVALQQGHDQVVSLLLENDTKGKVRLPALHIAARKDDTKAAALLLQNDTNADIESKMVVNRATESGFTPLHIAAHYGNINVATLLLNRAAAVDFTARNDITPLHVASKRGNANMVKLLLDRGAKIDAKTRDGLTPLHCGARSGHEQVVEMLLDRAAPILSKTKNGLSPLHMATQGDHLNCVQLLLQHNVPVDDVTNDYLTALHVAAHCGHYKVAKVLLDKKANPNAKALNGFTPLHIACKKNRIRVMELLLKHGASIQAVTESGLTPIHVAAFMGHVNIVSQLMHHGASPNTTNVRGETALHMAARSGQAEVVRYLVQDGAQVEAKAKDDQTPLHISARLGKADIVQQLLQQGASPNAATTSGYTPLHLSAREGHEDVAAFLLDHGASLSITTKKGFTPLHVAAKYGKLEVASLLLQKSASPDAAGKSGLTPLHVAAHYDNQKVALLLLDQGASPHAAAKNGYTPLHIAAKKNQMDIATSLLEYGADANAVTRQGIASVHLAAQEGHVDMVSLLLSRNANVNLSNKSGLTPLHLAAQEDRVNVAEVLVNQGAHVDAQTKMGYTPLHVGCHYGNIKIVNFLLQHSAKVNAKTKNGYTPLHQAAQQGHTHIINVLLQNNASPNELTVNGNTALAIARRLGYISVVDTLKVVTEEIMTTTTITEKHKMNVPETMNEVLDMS

B1: Nfasc ankyrin-binding domain (ABD, residues 1187-1214) (domain or fragment, UniProt P97685 1187-1214, looked up)
chain: SDDSLVDYGEGGEGQFNEDGSFIGQYTV
notes: also called Nfasc ABD; source: E. coli BL21 (DE3), purified (Ni-NTA, size-exclusion chromatography)
**Q.** What does the source list for B1?
**A.** Kd [1]: 130 nM; Kd [2]: 1100 nM; Kd [3]: 290 nM; Kd [4]: ~220 nM
